1 molecule from paper PMC7266990 (2020) can be followed below.

The target in the assay is A. fumigatus wt CBC consisting of the HapB^230–299, HapC^40–137, and HapE^47–164 subunits (Aspergillus fumigatus). In words: SPR. (In general: Surface plasmon resonance follows binding to a sensor surface in real time, without labels.)

B1: A. fumigatus HapX^24–158 bZIP peptide (covering the CBC-binding domain, basic region, and coiled-coil domain) (domain or fragment)
chain: SPSPGPGTPGSITSKEWVIPPRPKPGRKPATDTPPTKRKAQNRAAQRAFRERRAARVNELEEQIKKIEDEHEIHIAAFKEQITNLSREVEQCRSEMTWWRDRCHALEKEVSVERSAKEAIVKEFRSSLSDREAVR
As for B1, binding was put at a Kd of 1.01 nM.
